According to patent US12679878B2, “CRF2 receptor agonists and their use in therapy” (SANOFI, priority 2020, dated 2026):
Starred links: 1 amine or outer side, 2 acyl side, 3 side chain; linkers in the order of their positions; H or OH if unused. Non-standard residues stand in square brackets, D forms with d. Groups on a side chain read outwards from the residue. No end group written: not given here. *: point of attachment. C18 diacid = O=C(O)CCCCCCCCCCCCCCCCC(=O)*; γGlu = O=C(O)[C@H](CCC(=O)[*:2])N[*:1]; Palmitoyl = CCCCCCCCCCCCCCCC(=O)*; AEEA = NCCOCCOCC(=O)O; Aib = CC(C)(N)C(=O)O

Target: human corticotropin-releasing factor 2α (CRF2 α receptor) (human), Q13324
Assay: cell-based or functional assay

Sequence of human corticotropin-releasing factor 2α (CRF2 α receptor) (human), Q13324 (Q13324 20-411): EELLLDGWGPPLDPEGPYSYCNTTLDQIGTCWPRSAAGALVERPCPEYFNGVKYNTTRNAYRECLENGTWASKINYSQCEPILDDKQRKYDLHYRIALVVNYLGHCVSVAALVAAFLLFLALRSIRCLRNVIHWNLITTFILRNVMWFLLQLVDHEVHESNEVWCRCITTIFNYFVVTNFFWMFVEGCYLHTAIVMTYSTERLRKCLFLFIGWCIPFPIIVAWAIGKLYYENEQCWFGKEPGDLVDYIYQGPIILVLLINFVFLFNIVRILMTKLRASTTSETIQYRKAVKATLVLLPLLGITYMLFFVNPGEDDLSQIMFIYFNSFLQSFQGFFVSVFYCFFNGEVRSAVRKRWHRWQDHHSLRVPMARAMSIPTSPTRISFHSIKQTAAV

Binder	EC50 [nM], 0% HSA	EC50 [nM], 0.1% HSA
IVLSLDVPIKLK([AEEA-AEEA-γGlu-C18 diacid])QILLEQERQR[Aib]ERQQAEKNVRILERV-NH2 (N-terminus assumed; SMILES CC[C@H](C)[C@H](N)C(=O)N[C@H](C(=O)N[C@@H](CC(C)C)C(=O)N[C@@H](CO)C(=O)N[C@@H](CC(C)C)C(=O)N[C@@H](CC(=O)O)C(=O)N[C@H](C(=O)N1CCC[C@H]1C(=O)N[C@H](C(=O)N[C@@H](CCCCN)C(=O)N[C@@H](CC(C)C)C(=O)N[C@@H](CCCCNC(=O)COCCOCCNC(=O)COCCOCCNC(=O)CC[C@H](NC(=O)CCCCCCCCCCCCCCCCC(=O)O)C(=O)O)C(=O)N[C@@H](CCC(N)=O)C(=O)N[C@H](C(=O)N[C@@H](CC(C)C)C(=O)N[C@@H](CC(C)C)C(=O)N[C@@H](CCC(=O)O)C(=O)N[C@@H](CCC(N)=O)C(=O)N[C@@H](CCC(=O)O)C(=O)N[C@@H](CCCNC(=N)N)C(=O)N[C@@H](CCC(N)=O)C(=O)N[C@@H](CCCNC(=N)N)C(=O)NC(C)(C)C(=O)N[C@@H](CCC(=O)O)C(=O)N[C@@H](CCCNC(=N)N)C(=O)N[C@@H](CCC(N)=O)C(=O)N[C@@H](CCC(N)=O)C(=O)N[C@@H](C)C(=O)N[C@@H](CCC(=O)O)C(=O)N[C@@H](CCCCN)C(=O)N[C@@H](CC(N)=O)C(=O)N[C@H](C(=O)N[C@@H](CCCNC(=N)N)C(=O)N[C@H](C(=O)N[C@@H](CC(C)C)C(=O)N[C@@H](CCC(=O)O)C(=O)N[C@@H](CCCNC(=N)N)C(=O)N[C@H](C(N)=O)C(C)C)[C@@H](C)CC)C(C)C)[C@@H](C)CC)[C@@H](C)CC)C(C)C)C(C)C) [SEQ ID NO: 42]	15.4 nM	–
IVLSLDVPIKLK([AEEA-AEEA-γGlu-C18 diacid])QILLEQAKQKKERAQAETNVRILERV-NH2 (N-terminus assumed; SMILES CC[C@H](C)[C@H](N)C(=O)N[C@H](C(=O)N[C@@H](CC(C)C)C(=O)N[C@@H](CO)C(=O)N[C@@H](CC(C)C)C(=O)N[C@@H](CC(=O)O)C(=O)N[C@H](C(=O)N1CCC[C@H]1C(=O)N[C@H](C(=O)N[C@@H](CCCCN)C(=O)N[C@@H](CC(C)C)C(=O)N[C@@H](CCCCNC(=O)COCCOCCNC(=O)COCCOCCNC(=O)CC[C@H](NC(=O)CCCCCCCCCCCCCCCCC(=O)O)C(=O)O)C(=O)N[C@@H](CCC(N)=O)C(=O)N[C@H](C(=O)N[C@@H](CC(C)C)C(=O)N[C@@H](CC(C)C)C(=O)N[C@@H](CCC(=O)O)C(=O)N[C@@H](CCC(N)=O)C(=O)N[C@@H](C)C(=O)N[C@@H](CCCCN)C(=O)N[C@@H](CCC(N)=O)C(=O)N[C@@H](CCCCN)C(=O)N[C@@H](CCCCN)C(=O)N[C@@H](CCC(=O)O)C(=O)N[C@@H](CCCNC(=N)N)C(=O)N[C@@H](C)C(=O)N[C@@H](CCC(N)=O)C(=O)N[C@@H](C)C(=O)N[C@@H](CCC(=O)O)C(=O)N[C@H](C(=O)N[C@@H](CC(N)=O)C(=O)N[C@H](C(=O)N[C@@H](CCCNC(=N)N)C(=O)N[C@H](C(=O)N[C@@H](CC(C)C)C(=O)N[C@@H](CCC(=O)O)C(=O)N[C@@H](CCCNC(=N)N)C(=O)N[C@H](C(N)=O)C(C)C)[C@@H](C)CC)C(C)C)[C@@H](C)O)[C@@H](C)CC)[C@@H](C)CC)C(C)C)C(C)C) [SEQ ID NO: 44]	13.7 nM	–
IVLSLDVPIKLK([γGlu-Palmitoyl])KILLEQEKQEKEKQQAETNAQILAQV-NH2 (N-terminus assumed; SMILES CCCCCCCCCCCCCCCC(=O)N[C@@H](CCC(=O)NCCCC[C@H](NC(=O)[C@H](CC(C)C)NC(=O)[C@H](CCCCN)NC(=O)[C@@H](NC(=O)[C@@H]1CCCN1C(=O)[C@@H](NC(=O)[C@H](CC(=O)O)NC(=O)[C@H](CC(C)C)NC(=O)[C@H](CO)NC(=O)[C@H](CC(C)C)NC(=O)[C@@H](NC(=O)[C@@H](N)[C@@H](C)CC)C(C)C)C(C)C)[C@@H](C)CC)C(=O)N[C@@H](CCCCN)C(=O)N[C@H](C(=O)N[C@@H](CC(C)C)C(=O)N[C@@H](CC(C)C)C(=O)N[C@@H](CCC(=O)O)C(=O)N[C@@H](CCC(N)=O)C(=O)N[C@@H](CCC(=O)O)C(=O)N[C@@H](CCCCN)C(=O)N[C@@H](CCC(N)=O)C(=O)N[C@@H](CCC(=O)O)C(=O)N[C@@H](CCCCN)C(=O)N[C@@H](CCC(=O)O)C(=O)N[C@@H](CCCCN)C(=O)N[C@@H](CCC(N)=O)C(=O)N[C@@H](CCC(N)=O)C(=O)N[C@@H](C)C(=O)N[C@@H](CCC(=O)O)C(=O)N[C@H](C(=O)N[C@@H](CC(N)=O)C(=O)N[C@@H](C)C(=O)N[C@@H](CCC(N)=O)C(=O)N[C@H](C(=O)N[C@@H](CC(C)C)C(=O)N[C@@H](C)C(=O)N[C@@H](CCC(N)=O)C(=O)N[C@H](C(N)=O)C(C)C)[C@@H](C)CC)[C@@H](C)O)[C@@H](C)CC)C(=O)O) [SEQ ID NO: 2]	0.01 nM	0.01 nM
IVLSLDVPIKLK([AEEA-AEEA-γGlu-C18 diacid])QILLEQAKQKKLRAQAETNVRILERV-NH2 (N-terminus assumed; SMILES CC[C@H](C)[C@H](N)C(=O)N[C@H](C(=O)N[C@@H](CC(C)C)C(=O)N[C@@H](CO)C(=O)N[C@@H](CC(C)C)C(=O)N[C@@H](CC(=O)O)C(=O)N[C@H](C(=O)N1CCC[C@H]1C(=O)N[C@H](C(=O)N[C@@H](CCCCN)C(=O)N[C@@H](CC(C)C)C(=O)N[C@@H](CCCCNC(=O)COCCOCCNC(=O)COCCOCCNC(=O)CC[C@H](NC(=O)CCCCCCCCCCCCCCCCC(=O)O)C(=O)O)C(=O)N[C@@H](CCC(N)=O)C(=O)N[C@H](C(=O)N[C@@H](CC(C)C)C(=O)N[C@@H](CC(C)C)C(=O)N[C@@H](CCC(=O)O)C(=O)N[C@@H](CCC(N)=O)C(=O)N[C@@H](C)C(=O)N[C@@H](CCCCN)C(=O)N[C@@H](CCC(N)=O)C(=O)N[C@@H](CCCCN)C(=O)N[C@@H](CCCCN)C(=O)N[C@@H](CC(C)C)C(=O)N[C@@H](CCCNC(=N)N)C(=O)N[C@@H](C)C(=O)N[C@@H](CCC(N)=O)C(=O)N[C@@H](C)C(=O)N[C@@H](CCC(=O)O)C(=O)N[C@H](C(=O)N[C@@H](CC(N)=O)C(=O)N[C@H](C(=O)N[C@@H](CCCNC(=N)N)C(=O)N[C@H](C(=O)N[C@@H](CC(C)C)C(=O)N[C@@H](CCC(=O)O)C(=O)N[C@@H](CCCNC(=N)N)C(=O)N[C@H](C(N)=O)C(C)C)[C@@H](C)CC)C(C)C)[C@@H](C)O)[C@@H](C)CC)[C@@H](C)CC)C(C)C)C(C)C) [SEQ ID NO: 43]	1.9 nM	–
IVLSLDVPIKLK([AEEA-AEEA-γGlu-C18 diacid])QILLEQAKQK[Aib]LKAQAETNVRILERV-NH2 (N-terminus assumed; SMILES CC[C@H](C)[C@H](N)C(=O)N[C@H](C(=O)N[C@@H](CC(C)C)C(=O)N[C@@H](CO)C(=O)N[C@@H](CC(C)C)C(=O)N[C@@H](CC(=O)O)C(=O)N[C@H](C(=O)N1CCC[C@H]1C(=O)N[C@H](C(=O)N[C@@H](CCCCN)C(=O)N[C@@H](CC(C)C)C(=O)N[C@@H](CCCCNC(=O)COCCOCCNC(=O)COCCOCCNC(=O)CC[C@H](NC(=O)CCCCCCCCCCCCCCCCC(=O)O)C(=O)O)C(=O)N[C@@H](CCC(N)=O)C(=O)N[C@H](C(=O)N[C@@H](CC(C)C)C(=O)N[C@@H](CC(C)C)C(=O)N[C@@H](CCC(=O)O)C(=O)N[C@@H](CCC(N)=O)C(=O)N[C@@H](C)C(=O)N[C@@H](CCCCN)C(=O)N[C@@H](CCC(N)=O)C(=O)N[C@@H](CCCCN)C(=O)NC(C)(C)C(=O)N[C@@H](CC(C)C)C(=O)N[C@@H](CCCCN)C(=O)N[C@@H](C)C(=O)N[C@@H](CCC(N)=O)C(=O)N[C@@H](C)C(=O)N[C@@H](CCC(=O)O)C(=O)N[C@H](C(=O)N[C@@H](CC(N)=O)C(=O)N[C@H](C(=O)N[C@@H](CCCNC(=N)N)C(=O)N[C@H](C(=O)N[C@@H](CC(C)C)C(=O)N[C@@H](CCC(=O)O)C(=O)N[C@@H](CCCNC(=N)N)C(=O)N[C@H](C(N)=O)C(C)C)[C@@H](C)CC)C(C)C)[C@@H](C)O)[C@@H](C)CC)[C@@H](C)CC)C(C)C)C(C)C) [SEQ ID NO: 45]	3.77 nM	–

More lines, now with the values ahead:

EC50 [nM], 0% HSA	EC50 [nM], 0.1% HSA	Binder
6.85 nM	–	IVLSLD[dV]PTKLK([AEEA-AEEA-γGlu-C18 diacid])KKLLKQERKR[Aib]EREKAEKAARILERV-NH2 [SEQ ID NO: 47]
0.52 nM	–	IVLSLDVPIKLK([AEEA-AEEA-γGlu-C18 diacid])QILLEQAKQK[Aib]LRAQAETNVRILERV-NH2 (N-terminus assumed; SMILES CC[C@H](C)[C@H](N)C(=O)N[C@H](C(=O)N[C@@H](CC(C)C)C(=O)N[C@@H](CO)C(=O)N[C@@H](CC(C)C)C(=O)N[C@@H](CC(=O)O)C(=O)N[C@H](C(=O)N1CCC[C@H]1C(=O)N[C@H](C(=O)N[C@@H](CCCCN)C(=O)N[C@@H](CC(C)C)C(=O)N[C@@H](CCCCNC(=O)COCCOCCNC(=O)COCCOCCNC(=O)CC[C@H](NC(=O)CCCCCCCCCCCCCCCCC(=O)O)C(=O)O)C(=O)N[C@@H](CCC(N)=O)C(=O)N[C@H](C(=O)N[C@@H](CC(C)C)C(=O)N[C@@H](CC(C)C)C(=O)N[C@@H](CCC(=O)O)C(=O)N[C@@H](CCC(N)=O)C(=O)N[C@@H](C)C(=O)N[C@@H](CCCCN)C(=O)N[C@@H](CCC(N)=O)C(=O)N[C@@H](CCCCN)C(=O)NC(C)(C)C(=O)N[C@@H](CC(C)C)C(=O)N[C@@H](CCCNC(=N)N)C(=O)N[C@@H](C)C(=O)N[C@@H](CCC(N)=O)C(=O)N[C@@H](C)C(=O)N[C@@H](CCC(=O)O)C(=O)N[C@H](C(=O)N[C@@H](CC(N)=O)C(=O)N[C@H](C(=O)N[C@@H](CCCNC(=N)N)C(=O)N[C@H](C(=O)N[C@@H](CC(C)C)C(=O)N[C@@H](CCC(=O)O)C(=O)N[C@@H](CCCNC(=N)N)C(=O)N[C@H](C(N)=O)C(C)C)[C@@H](C)CC)C(C)C)[C@@H](C)O)[C@@H](C)CC)[C@@H](C)CC)C(C)C)C(C)C) [SEQ ID NO: 46]
